The target of data set [1] is T1, AtBPC2 (Arabidopsis thaliana, UniProt Q9LDE2 1-279).
T1 sequence: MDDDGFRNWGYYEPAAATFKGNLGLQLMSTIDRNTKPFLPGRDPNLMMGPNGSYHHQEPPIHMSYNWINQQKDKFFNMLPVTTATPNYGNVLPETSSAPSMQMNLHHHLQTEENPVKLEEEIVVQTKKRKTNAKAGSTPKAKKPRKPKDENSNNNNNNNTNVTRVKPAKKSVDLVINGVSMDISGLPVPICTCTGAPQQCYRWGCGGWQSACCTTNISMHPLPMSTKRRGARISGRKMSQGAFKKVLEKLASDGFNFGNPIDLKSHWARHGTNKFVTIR
Nature of the data set: competition DPI-ELISA; 100-1000 pmol competitor vs 2 pmol GABio; DPI-ELISA: 2 pmol ds-bio DNA per well, crude E. coli extract in protein extraction buffer (HEPES, 100 mM salt per Additional file 1), 1 h, PBS-T washes pH 7.5. As to conditions: protein: recombinant; tags: N-terminal His (pET32b-GW).

Data set [2] addresses T1, AtBPC2. In words: DPI-ELISA; DPI-ELISA: 2 pmol ds-bio DNA per well, crude E. coli extract in protein extraction buffer (HEPES, 100 mM salt per Additional file 1), 1 h, PBS-T washes pH 7.5. As to conditions: protein: recombinant; tags: N-terminal His (pET32b-GW); label: 5' biotin.
The target in data set [3] is T2, AtWRKY33cDBD (Arabidopsis thaliana, UniProt Q8S8P5 346-449). The description is as above. As to conditions: protein: recombinant; tags: C-terminal V5:His; label: 5' biotin (DPI-ELISA); 33P (EMSA).
T2 sequence (Q8S8P5 346-449): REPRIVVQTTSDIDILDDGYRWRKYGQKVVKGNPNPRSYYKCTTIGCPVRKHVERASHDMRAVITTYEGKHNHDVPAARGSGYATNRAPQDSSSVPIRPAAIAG
In the next data set the target is AtWRKY75DBD (Arabidopsis thaliana, UniProt Q9FYA2 58-145). In words: DPI-ELISA; up to 100 ug crude extract (data not shown); DPI-ELISA: 2 pmol ds-bio DNA per well, crude E. coli extract in protein extraction buffer (HEPES, 100 mM salt per Additional file 1), 1 h, PBS-T washes pH 7.5. As to conditions: protein: recombinant; tags: C-terminal V5:His; label: 5' biotin (DPI-ELISA); 33P (EMSA).
Sequence of AtWRKY75DBD (Q9FYA2 58-145): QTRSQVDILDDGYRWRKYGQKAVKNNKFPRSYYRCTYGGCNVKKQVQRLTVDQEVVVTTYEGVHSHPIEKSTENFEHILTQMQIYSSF

A further data set concerns the target AtWRKY50DBD (Arabidopsis thaliana, UniProt Q8VWQ5 99-173). In words: DPI-ELISA; not corrected for protein concentration in extract; DPI-ELISA: 2 pmol ds-bio DNA per well, crude E. coli extract in protein extraction buffer (HEPES, 100 mM salt per Additional file 1), 1 h, PBS-T washes pH 7.5. As to conditions: protein: recombinant; tags: C-terminal V5:His; label: 5' biotin (DPI-ELISA); 33P (EMSA).

Data set [4] deals with T3, AtWRKY11DBD (Arabidopsis thaliana, UniProt Q9SV15 229-325). Nature of the data set: competition DPI-ELISA; up to 50 pmol competitor; DPI-ELISA: 2 pmol ds-bio DNA per well, crude E. coli extract in protein extraction buffer (HEPES, 100 mM salt per Additional file 1), 1 h, PBS-T washes pH 7.5. As to conditions: protein: recombinant; tags: C-terminal V5:His.
T3 sequence (Q9SV15 229-325): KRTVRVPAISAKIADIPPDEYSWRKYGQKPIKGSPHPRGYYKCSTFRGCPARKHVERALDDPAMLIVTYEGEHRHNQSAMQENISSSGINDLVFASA
The target in data set [5] is T3, AtWRKY11DBD. Nature of the data set: EMSA; DPI-ELISA: 2 pmol ds-bio DNA per well, crude E. coli extract in protein extraction buffer (HEPES, 100 mM salt per Additional file 1), 1 h, PBS-T washes pH 7.5. As to conditions: protein: recombinant; tags: C-terminal V5:His; label: 5' biotin (DPI-ELISA); 33P (EMSA).
Data set [6] has as its target T2, AtWRKY33cDBD. Nature of the data set: DPI-ELISA; also at higher protein amounts (data not shown); DPI-ELISA: 2 pmol ds-bio DNA per well, crude E. coli extract in protein extraction buffer (HEPES, 100 mM salt per Additional file 1), 1 h, PBS-T washes pH 7.5. As to conditions: protein: recombinant; tags: C-terminal V5:His; label: 5' biotin (DPI-ELISA); 33P (EMSA).
The next data set deals with T4, AtbZIP63 (Arabidopsis thaliana, UniProt B9DGI8 1-314).
T4 sequence: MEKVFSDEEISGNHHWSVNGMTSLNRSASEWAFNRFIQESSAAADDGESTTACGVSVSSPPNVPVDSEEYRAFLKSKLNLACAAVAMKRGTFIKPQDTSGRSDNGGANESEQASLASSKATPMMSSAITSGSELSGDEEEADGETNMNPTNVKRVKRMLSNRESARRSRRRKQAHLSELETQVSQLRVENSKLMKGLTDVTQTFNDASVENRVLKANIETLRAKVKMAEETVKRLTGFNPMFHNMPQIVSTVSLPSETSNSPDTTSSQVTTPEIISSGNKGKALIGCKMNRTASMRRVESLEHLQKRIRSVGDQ
Nature of the data set: EMSA; DPI-ELISA: 2 pmol ds-bio DNA per well, crude E. coli extract in protein extraction buffer (HEPES, 100 mM salt per Additional file 1), 1 h, PBS-T washes pH 7.5. The following applies: protein: recombinant; tags: C-terminal V5:His; chain copies: 2; label: 5' biotin (DPI-ELISA); 33P (EMSA).

For data set [7], the target named is T1, AtBPC2. Nature of the data set: competition DPI-ELISA; 1000 pmol DNA reduced binding irrespective of sequence; DPI-ELISA: 2 pmol ds-bio DNA per well, crude E. coli extract in protein extraction buffer (HEPES, 100 mM salt per Additional file 1), 1 h, PBS-T washes pH 7.5. The following applies: protein: recombinant; tags: N-terminal His (pET32b-GW).

The source of these data is PMC3003642, “DPI-ELISA: a fast and versatile method to specify the binding of plant transcription factors to DNA in vitro”.

Substitutions are numbered along the chain they refer to.

Sequence of AtWRKY50DBD (Q8VWQ5 99-173): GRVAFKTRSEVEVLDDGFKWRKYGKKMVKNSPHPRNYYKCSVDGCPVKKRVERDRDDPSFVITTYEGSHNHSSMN

B1: GA-probe, non-biotinylated competitor (dsDNA)
DNA 1: TAAAGGAGAAAGAAAGAGAAAGAGAGTTTC
DNA 2: GAAACTCTCTTTCTCTTTCTTTCTCCTTTA
B1: the binding result in the data set with AtBPC2 [1] is listed as “binds”.

B2: GAm-probe (GAmBio) (dsDNA)
DNA 1: TAATGCAGCAAGTAAGACTACGACTGTTTC
DNA 2: GAAACAGTCGTAGTCTTACTTGCTGCATTA
With B2, in the data set with AtBPC2 [2], the binding result is “no binding”.

B3: GA-probe (GABio) (dsDNA)
DNA 1: B1 DNA 1
DNA 2: B1 DNA 2
With B3, the binding result with AtBPC2 [2] is “binds”.

B4: W2-probe (W2Bio) (dsDNA)
DNA 1: AAATTATTCAGCCATCAAAAGTTGACCAATAAT
DNA 2: ATTATTGGTCAACTTTTGATGGCTGAATAATTT
Regarding B4, the results for the binding result in the data set with AtWRKY33cDBD [3] and in the data set with AtWRKY75DBD were “binds” and “no binding”, respectively. The binding signal with AtWRKY50DBD was > 2 fold absorbance vs AtWRKY33cDBD.

B5: W2m-probe, non-biotinylated competitor (dsDNA)
DNA 1: B4 DNA 1 with G24A, A25C
DNA 2: B4 DNA 2 with T9G, C10T
Take B5: in the data set with AtWRKY11DBD [4], the binding result is “no binding”.

B6: W2m-probe (W2mBio) (dsDNA)
DNA 1: B4 DNA 1 with G24A, A25C
DNA 2: B4 DNA 2 with T9G, C10T
As for B6, the binding result in the data set with AtWRKY11DBD [5], with AtWRKY75DBD and with AtWRKY33cDBD [6] was “no binding” throughout.

B7: Cm-probe (dsDNA)
DNA 1: AATTCTCCCTTATCTGCAGTCAGCATCCGG
DNA 2: CCGGATGCTGACTGCAGATAAGGGAGAATT
For B7, the binding result in the data set with AtbZIP63 is given as “no binding”.

B8: GAm-probe, non-biotinylated competitor (dsDNA)
DNA 1: B2 DNA 1
DNA 2: B2 DNA 2
As for B8, in the data set with AtBPC2 [7], the binding result was “no binding”.

B9: C-probe (C-box) (dsDNA)
DNA 1: B7 DNA 1 with C17A, A18C
DNA 2: B7 DNA 2 with T13G, G14T
On to B9, for which the binding result in the data set with AtbZIP63 was “binds”.
